Test results as given in patent US20240190962A1 (IMMUNOWAKE, published 2024).
Numbering of substitutions follows the chain as printed. Names and notes keep the numbering of the source.

B1: Fab-IL-12(WT)-Fc-CD8 Ab (other)
light: DIQMTQTTSSLSASLGDRVTISCRASQDINNYLNWYQQKSDGTIKLLIYYTSRSYSGVPSRFSGSGSGTDYSLTISNRRQEDIATYFCQQGKTLPWTFGGGTKLEIKRTVAAPSVFIFPPSDEQLKSGTASVVCLLNNFYPREAKVQWKVDNALQSGNSQESVTEQDSKDSTYSLSSTLTLSKADYEKHKVYACEVTHQGLSSPVTKSFNRGEC
heavy 1: EVQLQQSGPELVKPGASVKMSCKASGYTFTDYYMKWVKQSHGKSLEWIGHINPNNDDTFYTQKFKGRATLTVDKSSSTAYMQLNSLTSEDSAVYYCVRDDYDGGWFAYWGQGTLVTVSSASTKGPSVFPLAPSSKSTSGGTAALGCLVKDYFPEPVTVSWNSGALTSGVHTFPAVLQSSGLYSLSSVVTVPSSSLGTQTYICNVNHKPSNTKVDKKVEPKSCDKTHTCPPCPAPEKKGGPSVFLFPPKPKDTLMISRTPEVTCVVVDVSHEDPEVKFNWYVDGVEVHNAKTKPREEQYNSTYRVVSVLTVLHQDWLNGKEYKCKVSNKALPAPIEKTISKAKGQPREPQVYVLPPSREEMTKNQVSLLCLVKGFYPSDIAVEWESNGQPENRYMTWPPVLDSDGSFFLYSKLTVDKSRWQQGNVFSCSVMHEALHNHYTQKSLSLSPGK
heavy 2: EVQLQQSGPELVKPGASVKMSCKASGYTFTDYYMKWVKQSHGKSLEWIGHINPNNDDTFYTQKFKGRATLTVDKSSSTAYMQLNSLTSEDSAVYYCVRDDYDGGWFAYWGQGTLVTVSSASTKGPSVFPLAPSSKSTSGGTAALGCLVKDYFPEPVTVSWNSGALTSGVHTFPAVLQSSGLYSLSSVVTVPSSSLGTQTYICNVNHKPSNTKVDKKVEPKSCDKPGSGIWELKKDVYVVELDWYPDAPGEMVVLTCDTPEEDGITWTLDQSSEVLGSGKTLTIQVKEFGDAGQYTCHKGGEVLSHSLLLLHKKEDGIWSTDILKDQKEPKNKTFLRCEAKNYSGRFTCWWLTTISTDLTFSVKSSRGSSDPQGVTCGAATLSAERVRGDNKEYEYSVECQEDSACPAAEESLPIEVMVDAVHKLKYENYTSSFFIRDIIKPDPPKNLQLKPLKNSRQVEVSWEYPDTWSTPHSYFSLTFCVQVQGKSKREKKDRVFTDKTSATVICRKNASISVRAQDRYYSSSWSEWASVPCSGGGGSGGGGSGGGGSGGGGSGRNLPVATPDPGMFPCLHHSQNLLRAVSNMLQKARQTLEFYPCTSEEIDHEDITKDKTSTVEACLPLELTKNESCLNSRETSFITNGSCLASRKTSFMMALCLSSIYEDLKMYQVEFKTMNAKLLMDPKRQIFLDQNMLAVIDELMQALNFNSETVPQKSSLEEPDFYKTKIKLCILLHAFRIRAVTIDRVMSYLNASDKTHTCPPCPAPEDEGGPSVFLFPPKPKDTLMISRTPEVTCVVVDVSHEDPEVKFNWYVDGVEVHNAKTKPREEQYNSTYRVVSVLTVLHQDWLNGKEYKCKVSNKALPAPIEKTISKAKGQPREPQVYVYPPSREEMTKNQVSLTCLVKGFYPSDIAVEWESNGQPENNYKTTPPVLDEDGSFALVSKLTVDKSRWQQGNVFSCSVMHEALHNHYTQKSLSLSPGK
notes: copies: 2 + 1 + 1
B2: Fab-IL-12(E59A)-Fc-CD8 Ab (other)
light: B1 light
heavy 1: B1 heavy 1
heavy 2: B1 heavy 2 with E287A
notes: copies: 2 + 1 + 1
B3: Fab-IL-12(E59A/F60A)-Fc-CD8 Ab (other)
light: B1 light
heavy 1: B1 heavy 1
heavy 2: B1 heavy 2 with E287A, F288A
B4: Fab-IL-12(F60A)-Fc-CD8 Ab (other)
light: B1 light
heavy 1: B1 heavy 1
heavy 2: B1 heavy 2 with F288A
notes: copies: 2 + 1 + 1

What was measured:
CD4 on CD4+ T cells = target: T1, CD4 on CD4+ T cells (UniProt P01730 26-458, limits assumed); experiment: FACS
T1 construct: whole, on cells

[1] = target: human IL-12 receptor complex (IL-12Rβ1, IL-12Rβ2) (human, UniProt P42701 24-662; Q99665 24-862); experiment: cell-based or functional assay
human IL-12 receptor complex (IL-12Rβ1, IL-12Rβ2), sequence (Q99665 24-862, chain 2 of 2, other chains not shown): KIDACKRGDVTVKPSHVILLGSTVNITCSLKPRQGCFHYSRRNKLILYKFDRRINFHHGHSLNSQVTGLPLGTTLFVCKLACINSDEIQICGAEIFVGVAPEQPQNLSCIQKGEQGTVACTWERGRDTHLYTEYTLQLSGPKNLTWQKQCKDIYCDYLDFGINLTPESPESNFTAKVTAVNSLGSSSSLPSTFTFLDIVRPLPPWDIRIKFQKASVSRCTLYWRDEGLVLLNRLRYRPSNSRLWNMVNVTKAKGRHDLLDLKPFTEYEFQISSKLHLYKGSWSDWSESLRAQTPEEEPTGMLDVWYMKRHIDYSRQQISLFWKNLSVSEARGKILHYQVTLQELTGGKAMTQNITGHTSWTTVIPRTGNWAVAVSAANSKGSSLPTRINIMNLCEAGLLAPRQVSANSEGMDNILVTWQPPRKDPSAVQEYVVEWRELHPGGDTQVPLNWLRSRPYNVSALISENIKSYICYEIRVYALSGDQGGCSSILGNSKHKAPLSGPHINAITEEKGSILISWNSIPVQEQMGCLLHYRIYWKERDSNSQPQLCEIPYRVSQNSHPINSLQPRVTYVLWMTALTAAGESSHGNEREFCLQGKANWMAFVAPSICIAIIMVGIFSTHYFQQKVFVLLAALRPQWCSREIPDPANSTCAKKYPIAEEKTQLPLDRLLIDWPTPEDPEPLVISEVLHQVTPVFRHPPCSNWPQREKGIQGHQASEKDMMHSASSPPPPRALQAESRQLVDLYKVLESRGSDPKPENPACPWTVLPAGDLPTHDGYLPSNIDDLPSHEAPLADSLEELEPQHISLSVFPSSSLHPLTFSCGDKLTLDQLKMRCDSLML

| Binder | binding result (CD4 on CD4+ T cells) | IL-12 biological activity (IFN-γ release), CD4+ T cells [1] | IL-12 biological activity (IFN-γ release), CD8+ T cells [1] |
| --- | --- | --- | --- |
| B1 | no binding | 21% | 56% |
| B2 | no binding | 2.1% | 24.2% |
| B3 | no binding | 0% | 11% |
| B4 | no binding | 1.2% | 21.9% |
